Source: US20170101466A1 (published 2017)

T1: human APRIL (human, UniProt O75888 105-250, limits assumed)
T1 construct: Bought recombinant protein; also called hAPRIL
T1 sequence (looked up): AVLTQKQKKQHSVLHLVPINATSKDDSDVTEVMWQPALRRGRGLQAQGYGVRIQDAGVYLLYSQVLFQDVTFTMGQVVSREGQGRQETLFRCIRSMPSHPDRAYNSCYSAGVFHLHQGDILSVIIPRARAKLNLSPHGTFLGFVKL

T2: mouse APRIL (mouse, UniProt Q9D777 96-241, limits assumed)
T2 construct: Bought recombinant protein; also called mAPRIL
T2 sequence (looked up): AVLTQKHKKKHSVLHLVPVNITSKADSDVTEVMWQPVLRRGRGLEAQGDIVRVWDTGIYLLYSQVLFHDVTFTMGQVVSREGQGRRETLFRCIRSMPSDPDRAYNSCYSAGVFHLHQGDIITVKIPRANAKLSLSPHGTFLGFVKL

B1: 6C10 IgG expressed in HEK293 cells (antibody, V domains shown)
VH: EVQLVQSGAEVKKPGASVKVSCKASGYTFTSYGISWVRQAPGQGLEWMGWISAYNGNTNYAQKLQGRVTMTTDTSTSTAYMELRSLRSDDTAVYYCARTYYDILTGYYYYYGMDVWGQGTTVTVSS
VL: EIVLTQSPGTLSLSPGERAMLSCRASQSVGNYLAWYQQKPGQAPRLLIYDASNRATGIPARFSGSGSGTDFTLTINSLEPEDFAVYYCQQRSNWPLTFGGGTKVEIKR
notes: IgG from HEK293-FreeStyle cells; also called 6C10 (293)
B2: 9F8 IgG expressed in HEK293 cells (antibody, V domains shown)
VH: QVQLQQSGAEVKKPGASVKVSCKASGYTFTSYYMHWVRQAPGQGLEWMGWINAGNGNTKYSQKFQGRVTITRDTSASTAYMELSSLRSEDTAVYYCARDNLSYDILTGYSFGGWFDPWGQGTLVTVSS
VL: QSALTQPASVSGSPGQSITISCTGTSSDIGRYNYVSWYQQRPGRAPKVIIYDVSSRPSGVSKRFSASKSGNTASLTISGLQAEDEAVYYCSSYTRITTLYVFGPGTKVTVLG
notes: IgG from HEK293-FreeStyle cells
B3: 8A12 IgG expressed in HEK293 cells (antibody, V domains shown)
VH: QVQLVQSGGGLVQPGGSLRLSCAASGFTFSSYAMSWVRQAPGKGLEWVSAISGSGGSTYYADSVKGRFTISRDNSKNTLYLQMNSLRAEDTAVYYCAREGQGYDILTGYYTRGYYFDYWGQGTLVTVSS
VL: QSALTQPASVSGSPGQSITISCTGTSSDVGGYNYVSWYQQLPGKAPKLMIYEVSKRPSGVPDRFSGSKSGNTASLTISGLQAEDEADYYCSSYAGSSSWVFGGGTKLTVLG
notes: as for B2
B4: 8D12 IgG expressed in HEK293 cells (antibody, V domains shown)
VH: QVQLVQSGAEVKKPGASVKVSCKASGYTFTSYAMHWVRQAPGQRLEWMGWINAGNGNTKYSQKFQGRVTITRDTSASTAYMELSSLRSEDTAVYYCARAYYDILTGYSVYGMDVWGQGTTVTVSS
VL: EIVLTQSPATLSLSPGERATLSCRANESVGNYLAWYQQKPGQAPRLLIYGASRRATGIPDRFSGSGSGTDFTLTISRLEPEDFAVYYCQQYGSSLLTFGGGTKVEIKR
notes: IgG from HEK293-FreeStyle cells; also called 8D12 (293)
B5: belimumab (antibody, V domains shown)
VH: QVQLQQSGAEVKKPGSSVRVSCKASGGTFNNNAINWVRQAPGQGLEWMGGIIPMFGTAKYSQNFQGRVAITADESTGTASMELSSLRSEDTAVYYCARSRDLLLFPHHALSPWGRGTMVTVSS
VL: SSELTQDPAVSVALGQTVRVTCQGDSLRSYYASWYQQKPGQAPVLVIYGKNNRPSGIPDRFSGSSSGNTASLTITGAQAEDEADYYCSSRDSSGNHWVFGGGTELTVLG
B6: 6C10 IgG1 F243A/V264A double mutein expressed in Pichia pastoris (antibody, V domains shown)
VH: B1 VH
VL: B1 VL
notes: IgG1 F243A/V264A (EU) double mutein, alpha-2,6-sialylated, from glycoengineered Pichia pastoris; also called 6C10-DM; 6C10-DM (Pichia)
B7: 8D12 IgG1 F243A/V264A double mutein expressed in Pichia pastoris (antibody, V domains shown)
VH: B4 VH
VL: B4 VL
notes: IgG1 F243A/V264A (EU) double mutein, alpha-2,6-sialylated, from glycoengineered Pichia pastoris; also called 8D12-DM; 8D12-DM (Pichia)

The binders below were run against T3, soluble human BLyS (human, UniProt Q9Y275 134-285) (assay: Biacore).
T3 construct: also called hBLyS; human BAFF (BLyS)

Binder	Kd [nM]
B1	0.51
B2	1.1
B3	4.26
B4	0.66

Each binder was assayed against T4, soluble mouse BLyS (mouse, UniProt Q9WU72 127-309) (assay: Biacore).
T4 construct: europium-labelled in DELFIA; also called mBLyS; mouse BAFF (BLyS)

Binder	Kd [nM]
B1	0.0216
B2	0.0456
B3	0.0224
B4	0.028

What follows are binders tested against T3, soluble human BLyS (assay: ELISA, soluble hBLyS).

Binder	IC50 [nM]
B1	0.12
B2	0.15
B3	16
B4	0.13

These binders were tested against T4, soluble mouse BLyS (assay: ELISA, soluble mBLyS).

Binder	IC50 [nM]
B1	0.05
B2	0.07
B3	0.05
B4	0.16

What follows are binders tested against T5, soluble cynomolgus BLyS (cynomolgus, UniProt A0A2K5V2X4 134-285) (assay: ELISA, soluble cyBLyS).
T5 construct: Soluble form; also called cyBLyS; Soluble cyBLyS

Binder	IC50 [nM]
B1	0.1
B2	0.07
B3	0.32
B4	0.08

What follows are binders tested against T3, soluble human BLyS (assay: cell-based or functional assay).

Binder	IC50 hBLyS stimulated, mouse splenic B-cell proliferation [µg/mL]
B5	0.018

Each binder was assayed against T1, human APRIL (assay: Biacore, antibody captured, APRIL injected).
Description: (§1) Recombinant protein NG (Thermo Scientific, Cat #21186) was diluted to 100 μg/ml in 10 mM Sodium Acetate pH 4.0 and then immobilized on the surface of a pre-activated Series S CM4 Biacore chip (GE, Cat #BR-1005-34) using amine coupling. […] Binding response was measured as the difference in total RU increase during 300 second APRIL injection of each individual flow cell and the reference flow cell (e.g., Flow cell 2-1).

Binder	binding result
B6	no binding (tested: 50 nM)
B1	no binding (tested: 50 nM)
B7	no binding (tested: 50 nM)
B4	no binding (tested: 50 nM)

Each binder was assayed against T2, mouse APRIL (assay: Biacore, antibody captured, APRIL injected).
Description: as §1

Binder	binding result
B6	no binding (tested: 50 nM)
B1	no binding (tested: 50 nM)
B7	no binding (tested: 50 nM)
B4	no binding (tested: 50 nM)

These binders were tested against T3, soluble human BLyS (assay: DELFIA competition, Eu-hBLyS binding to coated BR3).
Description: (§2) After 5× washing with 200 ul/well of DELFIA 1× wash solution (PE, Cat #4010-0010), plates were blocked with 3% BSA purified from trace heavy metal amounts (PE, Cat #CR84-100) for 3 hours with shaking at room temperature. Plates were washed again five times at 200 μl/well with DELFIA wash solution.
(§3) The final 3 wells across the plate served as controls (2 wells contained 2,000 pM mAbs for negative and background controls while the third contained no mAbs for positive control). […] After 18-24 hrs at 4° C., plates were read on PE EnVision plate reader with laser excitation, LANCE/DELFIA top mirror, and emission filter Eu-615 with a delay of 400 μs. Data were fit to four parameter (variable slope) inhibition dose response curve using GraphPad PRISM 5.0 software.

Binder	IC50 [nM]
B6	0.0873
B1	0.121
B7	0.101
B4	0.0622

These binders were tested against T4, soluble mouse BLyS (assay: DELFIA competition, Eu-mBLyS binding to coated BR3).
Description: as §2, §3

Binder	IC50 [nM]
B6	> 2
B1	0.784
B5	> 2
B7	> 2
B4	> 2

What follows are binders tested against T3, soluble human BLyS (assay: DELFIA competition, Eu-hBLyS binding to coated BCMA).
Description: as §2, §3

Binder	IC50 [nM]
B6	0.017
B1	0.0106
B7	1.28
B4	0.63

Each binder was assayed against T3, soluble human BLyS (assay: DELFIA competition, Eu-hBLyS binding to coated TACI).
Description: as §2, §3

Binder	IC50 [nM]
B6	0.00074
B1	0.00067
B7	< 0.0003
B4	< 0.0003

What follows are binders tested against T4, soluble mouse BLyS (assay: DELFIA competition, Eu-mBLyS binding to coated BCMA).
Description: as §2, §3

Binder	IC50 [nM]
B6	> 2
B1	0.098
B7	> 2
B4	> 2

What follows are binders tested against T4, soluble mouse BLyS (assay: DELFIA competition, Eu-mBLyS binding to coated TACI).
Description: as §2, §3

Binder	IC50 [nM]
B6	0.445
B1	0.679
B7	> 2
B4	> 2

What follows are binders tested against T3, soluble human BLyS (assay: blocking of biotinylated soluble hBLyS binding to immobilized mBR3).

Binder	IC50 [nM]
B1	0.33
B2	5.31
B3	2.97
B4	10

These binders were tested against T3, soluble human BLyS (assay: Biacore, antibody captured on chip, BLyS injected, 1:1 model, 25 C).
Description: (§4) Recombinant protein NG (Thermo Scientific, Cat #21186) was diluted to 100 μg/ml in 10 mM sodium acetate pH 4.0 and then immobilized on the surface of a pre-activated Series S CM5 Biacore chip (GE, Cat #BR-1005-34) using amine coupling. […] After the dissociation period, the chip was regenerated back to baseline by injecting 10 mM glycine pH 1.5 for 120 seconds over the four flow cells. […] The entire data set was fit to a 1:1 interaction model to give kₒₙ, koff, and Kd values. The assay was run at 25° C. in 1× biacore running buffer HBS-EP+ (GE, Cat #BR-1006-69).

Binder	Kd [nM]	koff [s⁻¹]	kon [M⁻¹ s⁻¹]
B6	0.421	5.5e-05	130000
B1	0.434	5e-05	120000
B7	0.138	3.5e-05	260000

Each binder was assayed against T4, soluble mouse BLyS in the same assay as above.
Description: as §4

Binder	Kd [nM]	koff [s⁻¹]	kon [M⁻¹ s⁻¹]
B6	0.234	7.9e-05	330000
B1	0.334	6.7e-05	200000
B7	0.099	5.7e-05	580000

Each binder was assayed against T3, soluble human BLyS (assay: Biacore T100, binder captured by anti-human Fc, BLyS injected, 1:1 model).
Description: (§5) A Series S CM5 Chip (GE Healthcare) was amine coupled with an anti-human Fc capturing antibody (GE Healthcare Human Fc Kit) to >10,000 RUs. Sample antibodies were diluted in 1×HBS-EP+ running buffer to 0.15 ug/mL and injected for 45 seconds at 10 uL/min. […] Biacore Evaluation software was used to fit the data to a 1:1 Binding Model.

Binder	Kd [nM]	koff [s⁻¹]	kon [M⁻¹ s⁻¹]
B6	0.068	2.5e-05	368000
B5	0.167	8.55e-05	506000
B7	0.049	5.4e-05	1.11e+06

The binders below were run against T4, soluble mouse BLyS in the same assay as above.
Description: as §5

Binder	Kd [nM]	koff [s⁻¹]	kon [M⁻¹ s⁻¹]
B6	0.232	0.000224	967000
B5	0.0635	0.000125	1.98e+06
B7	0.134	0.000196	1.46e+06
